Data on eight molecules can be found in US20150344570A1 (published 2015).

B1: IL6R-BP256/IL6R-L (antibody, human IgG1, kappa)
heavy: QVQLQESGPGLVKPSETLSLTCAVSGHSISHDHAWSWVRQPPGEGLEWIGFISYSGITNYNPSLQGRVTISRDNSKNTLYLQMNSLRAEDTAVYYCARSLARTTAMDYWGEGTLVTVSSASTKGPSVFPLAPSSKSTSGGTAALGCLVKDYFPEPVTVSWNSGALTSGVHTFPAVLQSSGLYSLSSVVTVPSSSLGTQTYICNVNHKPSNTKVDKKVEPKSCDKTHTCPPCPAPDLLGDDDVFLFPPKPKDTLMISRTPEVTCVVVDVSDEDGEVKFNWYVDGVEVHNAKTKPREEQYNSTYRVVSVLTVLHQDWLNGKEYKCKVSNKALPRPIEKTISKAKGQPREPQVYTLPPSRDELTKNQVSLTCLVKGFYPSDIAVEWESNGQPENNYKTTPPVLDSDGSFFLYSKLTVDKSRWQQGNVFSCSVMHEALHNHYTQESLSLSP
light: not shown
notes: Homodimerized antibody, S239D in both H chains
B2: IL6R-BP257/IL6R-L (antibody, human IgG1, kappa)
heavy: B1 heavy with D241E
light: not shown
notes: Homodimerized antibody, S239E in both H chains
B3: GpH7-A5/GpH7-TA45/GpL16-k0 (antibody, human IgG1, kappa)
heavy 1: not shown
heavy 2: QVQLVQSGAEVKKPGASVTVSCKASGYTFTDYEMHWIRQPPGEGLEWIGAIDPKTGDTAYSESFQDRVTLTADKSTSTAYMELSSLTSEDTAVYYCTRFYSYTYWGQGTLVTVSSASTKGPSVFPLAPSSKSTSGGTAALGCLVKDYFPEPVTVSWNSGALTSGVHTFPAVLQSSGLYSLSSVVTVPSSSLGTQTYICNVNHKPSNTKVDKKVEPKSCDKTHTCPPCPAPEYLWGPSVFLFPPKPKDTLMISRTPEVTCVVVDVSHEDPEVKFNWYVDGVEVHNAKTKPREEQYNATYRVVSVLTVLHQDWLNGKEYKCKVSNKALPAPIEKTISKAKGQPREPQVYTLPPSRDELTKNQVSLTCLVKGFYPSDIAVEWESNGQPENNYKTTPPVLDSDGSFFLYSKLTVDKSRWQQGNVFSCSVMHEALHNHYTQESLSLSP
light: DIVMTQSPLSLPVTPGEPASISCQASESLVHSNRNTYLHWYLQKPGQSPQLLIYKVSNRFSGVPDRFSGSGSGTDFTLKISRVEAEDVGVYYCSQNTHVPPTFGQGTKVEIERTVAAPSVFIFPPSDEQLKSGTASVVCLLNNFYPREAKVQWKVDNALQSGNSQESVTEQDSKDSTYSLSSTLTLSKADYEKHKVYACEVTHQGLSSPVTKSFNRGEC
notes: Anti-glypican-3 IgG1 heterodimer; L234Y/G236W/S298A in H2 only
B4: GpH7-Kn045/GpH7-Hl055/GpL16-k0 (antibody, human IgG1, kappa)
heavy 1: B3 heavy 2 with L233Y, W234A, H266D, Y347C, T364W, E437K
heavy 2: QVQLVQSGAEVKKPGASVTVSCKASGYTFTDYEMHWIRQPPGEGLEWIGAIDPKTGDTAYSESFQDRVTLTADKSTSTAYMELSSLTSEDTAVYYCTRFYSYTYWGQGTLVTVSSASTKGPSVFPLAPSSKSTSGGTAALGCLVKDYFPEPVTVSWNSGALTSGVHTFPAVLQSSGLYSLSSVVTVPSSSLGTQTYICNVNHKPSNTKVDKKVEPKSCDKTHTCPPCPAPELLAGPDVFLFPPKPKDTLMISRTPEVTCVVVDVSHEDPEVKFNWYVDGVEVHNAKTKPREELYNSTYRVVSVLTVLHQDWLNGKEYKCKVSNKALPMPEEKTISKAKGQPREPQVYTLPPSRCELTKNQVSLSCAVKGFYPSDIAVEWESNGQPENNYKTTPPVLDSDGSFFLVSKLTVDKSRWQQGNVFSCSVMHEALHNHYTQKSLSLSP
light: B3 light
notes: Heterodimerized antibody: knob chain L234Y/L235Y/G236A/H268D/S298A, hole chain G236A/S239D/Q295L/A330M/I332E; also called Kn045/Hl055
B5: GpH7-Kn045/GpH7-Hl048/GpL16-k0 (antibody, human IgG1, kappa)
heavy 1: B3 heavy 2 with L233Y, W234A, H266D, Y347C, T364W, E437K
heavy 2: B4 heavy 2 with L293Q, M328K
light: B3 light
notes: Heterodimerized antibody: knob chain L234Y/L235Y/G236A/H268D/S298A, hole chain G236A/S239D/A330K/I332E; also called Kn045/Hl048
B6: GpH7-Kn056/GpH7-Hl055/GpL16-k0 (antibody, human IgG1, kappa)
heavy 1: B3 heavy 2 with L233Y, W234A, H266D, Q293L, Y347C, T364W, E437K
heavy 2: B4 heavy 2
light: B3 light
notes: Heterodimerized antibody: knob chain L234Y/L235Y/G236A/H268D/Q295L/S298A, hole chain G236A/S239D/Q295L/A330M/I332E; also called Kn056/Hl055
B7: GpH7-Kn032/GpH7-Hl032/GpL16-k0 (antibody, human IgG1, kappa)
heavy 1: B4 heavy 2 with A234G, L293Q, M328L, Y347C, C354D, S364W, A366L, V405Y
heavy 2: B4 heavy 2 with A234G, L293Q, M328L
light: B3 light
notes: also called Kn032/Hl032
B8: GpH7-Kn037/GpH7-Hl036/GpL16-k0 (antibody, human IgG1, kappa)
heavy 1: B4 heavy 2 with L293Q, M328A, Y347C, C354D, S364W, A366L, V405Y
heavy 2: B4 heavy 2 with L293Q, M328A
light: B3 light
notes: also called Kn037/Hl036

Changes are numbered by the printed parent chain. Names and notes keep the numbering of the source.

T3 sequence (P08637 17-208 F176V limits assumed): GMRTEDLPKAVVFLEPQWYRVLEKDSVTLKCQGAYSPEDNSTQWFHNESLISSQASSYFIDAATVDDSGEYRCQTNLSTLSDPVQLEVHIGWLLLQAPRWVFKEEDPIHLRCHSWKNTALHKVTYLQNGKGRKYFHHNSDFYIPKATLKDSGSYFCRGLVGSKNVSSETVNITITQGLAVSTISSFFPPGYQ

One assay concerns the target T1, FcgRIIb (human, UniProt P31994 43-217).
T1 construct: extracellular domain; Soluble extracellular domain with C-terminal His tag, expressed in FreeStyle293 cells; also called FcγRIIb; 2b; not shown: His tag at the C terminus
T1 sequence (looked up): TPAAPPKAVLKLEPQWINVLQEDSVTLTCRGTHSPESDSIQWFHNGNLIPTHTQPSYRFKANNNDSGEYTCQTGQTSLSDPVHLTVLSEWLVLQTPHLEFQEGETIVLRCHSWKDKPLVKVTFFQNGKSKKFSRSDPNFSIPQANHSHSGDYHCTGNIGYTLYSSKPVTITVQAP
The experiment in a line: SPR (Biacore); KD of the variant for FcgRIIaR divided by its KD for FcgRIIb. In general terms: SPR reads the build-up and loss of mass on a sensor chip optically.
Regarding B1, the “KD(IIaR)/KD(IIb)” value was 8.4.

Regarding B2, the “KD(IIaR)/KD(IIb)” value amounted to 3.

For the next assay, the target named is T2, FcγRIIIa (human, UniProt P08637 17-208).
T2 construct: extracellular domain; also called FcgRIIIa; CD16A; not shown: His tag attached to the C terminus
T2 sequence (P08637 17-208): as the sequence (P08637 17-208 F176V limits assumed) above, with V160F counted along it
The experiment in a line: SPR (Biacore), antibody captured on antigen-peptide chip, FcγR as analyte; relative binding amount. The procedure:
Specifically, GpH7-TA7 and GpH7-TA45 (SEQ ID NO: 32) resulting from the introduction of L234Y, G236W, and S298A into GpH7-A5 and GpH7-B3, respectively, were prepared according to the method described in Reference Example 1. […] These antibodies were compared for the FcγRIIIa binding according to the method described in Reference Example 2 (Table 10).
(§1) Analysis of interaction between objective antibody and the FcγR was carried out using Biacore T100 (GE Healthcare). HBS-EP+ (GE Healthcare) was used as the running buffer, and the measurement temperature was set to 25° C. Chips produced by immobilizing the antigen peptide by the amine coupling method to a Series S Sencor Chip CM5 (GE Healthcare), or alternatively, chips produced by allowing preliminarily biotinylated antigen peptides to interact with and immobilize onto a Series S Sensor Chip SA (certified) (GE Healthcare) were used. Antibodies of interest were captured onto an antigen peptide-immobilized chip, and allowed to interact to each FcγR diluted with running buffer. To regenerate and repeatedly use the chip, the antibodies captured on the chip were washed off by reacting 10 mM glycine-HCl, pH 1.5.
Regarding B3, the “FcγR BINDING ACTIVITY (relative FcγRIIIa binding)” value was 225 relative, GpH7-A5/GpH7-B3/GpL16-k0 = 100.

A further assay has as its target T3, FcgRIIIa V (human, UniProt P08637 17-208).
T3 construct: extracellular domain; also called FcγRIIIa V; FcγRIIIaV
The assay is described as follows: SPR (Biacore); KD of GpH7-Kn033/GpH7-Hl033/GpL16-k0 for this FcγR divided by KD of this antibody. On the procedure: (§2) These antibodies were assessed for the binding activity to each FcγR according to the method described in Reference Example 2.
as §1
B4: the KD ratio was determined as 300 fold.

Regarding B5, the KD ratio was determined as 170 fold.

Regarding B6, the KD ratio came out at 327 fold.

Take B7: the KD ratio was determined as 182 fold.

Regarding B8, the KD ratio is 84 fold.

Another assay addresses T4, FcgRIIa H (human, UniProt P12318 34-217).
T4 construct: extracellular domain; also called FcγRIIa H; FcγRIIa type H
T4 sequence (looked up): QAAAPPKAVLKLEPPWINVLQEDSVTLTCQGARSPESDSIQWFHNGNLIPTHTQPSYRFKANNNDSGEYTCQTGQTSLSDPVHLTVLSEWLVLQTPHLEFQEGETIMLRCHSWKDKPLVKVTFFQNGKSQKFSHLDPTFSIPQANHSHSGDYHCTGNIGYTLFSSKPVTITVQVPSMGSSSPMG
The assay is described as above. The procedure:
as §2, §1
Consider B4, for which the KD ratio is 21 fold.

Turning to B5, the KD ratio is 52 fold.

Regarding B6, the KD ratio was 20 fold.

For B7, the KD ratio came out at 1.2 fold.

Turning to B8, the KD ratio stood at 22 fold.

A further assay concerns the target T5, FcgRIIa R (human, UniProt P12318 34-217).
T5 construct: extracellular domain; also called FcγRIIa R; FcγRIIa type R
T5 sequence (looked up): T4 sequence (looked up) with H134R
The description is as above. On the procedure:
as §2, §1
Take B4: the KD ratio turned out to be 56 fold.

With B5, the KD ratio was 154 fold.

Take B6: the KD ratio is 44 fold.

Take B7: the KD ratio worked out at 3 fold.

Take B8: the KD ratio was 43 fold.

A further assay deals with T6, FcgRIIIa F (human, UniProt P08637 17-208).
T6 construct: extracellular domain; also called FcγRIIIa F; FcγRIIIaF
T6 sequence (P08637 17-208): as the sequence (P08637 17-208 F176V limits assumed) above, with V160F counted along it
The description is as above. The procedure:
as §2, §1
Regarding B4, the KD ratio is 985 fold.

As for B5, the KD ratio was 419 fold.

In the case of B6, the KD ratio stood at 1110 fold.

As to B7, the KD ratio is 381 fold.

Regarding B8, the KD ratio is 161 fold.

The target of a further assay is T7, FcgRIa (human, UniProt P12314 16-292).
T7 construct: extracellular domain; also called FcγRIa; FcγRI
T7 sequence (P12314 16-292): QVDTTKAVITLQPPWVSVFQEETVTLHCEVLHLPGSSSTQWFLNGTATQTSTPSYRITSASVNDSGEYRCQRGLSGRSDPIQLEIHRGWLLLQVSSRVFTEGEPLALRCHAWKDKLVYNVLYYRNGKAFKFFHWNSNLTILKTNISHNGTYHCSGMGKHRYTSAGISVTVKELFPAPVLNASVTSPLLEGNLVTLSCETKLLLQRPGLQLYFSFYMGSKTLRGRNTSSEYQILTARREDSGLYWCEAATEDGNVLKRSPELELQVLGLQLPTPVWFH
Described as above. On the procedure: as §2, §1
Consider B4, for which the KD ratio turned out to be 3.7 fold.

B5: the KD ratio turned out to be 3.7 fold.

Take B6: the KD ratio stood at 2.9 fold.

Take B7: the KD ratio turned out to be 24 fold.

For the molecule B8, the KD ratio came out at 6 fold.

In a further assay the target is T8, FcgRIIb (human, UniProt P31994 43-217).
T8 construct: extracellular domain; also called FcγRIIb; CD32B
T8 sequence (looked up): T1 sequence (looked up)
The assay is described as above. The procedure: as §2, §1
With B4, the KD ratio worked out at 15 fold.

In the case of B5, the KD ratio came to 34 fold.

As to B6, the KD ratio came out at 14 fold.

With B7, the KD ratio stood at 8.2 fold.

B8: the KD ratio worked out at 16 fold.

The next assay deals with T9, FcgRIIaR (human, UniProt P12318 34-217).
T9 construct: extracellular domain; Soluble extracellular domain with C-terminal His tag, expressed in FreeStyle293 cells; also called FcγRIIa R; FcgRIIa type R; not shown: His tag at the C terminus
T9 sequence (looked up): T4 sequence (looked up) with H134R
The assay is described as follows: SPR (Biacore), antibody captured on chip, FcgR extracellular domain as analyte.
For the molecule B1, the “Relative KD (KD of IL6R-B3/IL6R-L divided by KD of the variant)” value amounted to 1.5.

Turning to B2, the “Relative KD (KD of IL6R-B3/IL6R-L divided by KD of the variant)” value was determined as 0.9.

In a further assay the target is T1, FcgRIIb. Described as above.
Regarding B1, the “Relative KD (KD of IL6R-B3/IL6R-L divided by KD of the variant)” value came to 35.7.

B2: the “Relative KD (KD of IL6R-B3/IL6R-L divided by KD of the variant)” value stood at 7.2.
